# Data taken from US20200123252A1 (LAMKAP BIO BETA, published 2020).
# T1: human CEACAM5 on MKN-45 cells (human, UniProt P06731 35-685)
# T1 construct: Endogenous CEACAM5 on MKN-45 gastric adenocarcinoma cells, which also carry CD47 (and CEACAM6); also called CD66e; MKN45 CEA+ cancer cells
# T1 sequence: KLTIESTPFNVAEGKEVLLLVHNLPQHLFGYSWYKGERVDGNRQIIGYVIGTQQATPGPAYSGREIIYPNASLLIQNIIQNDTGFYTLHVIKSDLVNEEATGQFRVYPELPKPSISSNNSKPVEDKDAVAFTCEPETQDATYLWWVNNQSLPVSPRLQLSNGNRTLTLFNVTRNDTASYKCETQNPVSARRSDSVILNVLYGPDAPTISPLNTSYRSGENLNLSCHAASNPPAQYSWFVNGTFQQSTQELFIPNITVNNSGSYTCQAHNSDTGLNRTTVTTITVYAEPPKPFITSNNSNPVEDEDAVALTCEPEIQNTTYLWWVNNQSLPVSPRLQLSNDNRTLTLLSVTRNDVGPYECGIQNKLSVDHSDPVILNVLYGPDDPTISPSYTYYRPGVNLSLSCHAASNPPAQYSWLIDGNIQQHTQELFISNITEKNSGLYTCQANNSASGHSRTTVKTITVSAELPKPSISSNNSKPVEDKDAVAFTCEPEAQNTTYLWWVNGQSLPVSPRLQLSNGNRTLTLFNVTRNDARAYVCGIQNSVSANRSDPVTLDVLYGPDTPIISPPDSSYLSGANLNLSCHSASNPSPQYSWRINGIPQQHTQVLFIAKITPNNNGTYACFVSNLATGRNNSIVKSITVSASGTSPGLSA
# T2: human CEACAM6 (human, UniProt P40199 35-320)
# T2 construct: also called CD66c; biotinylated recombinant human CEACAM6
# T2 sequence (looked up): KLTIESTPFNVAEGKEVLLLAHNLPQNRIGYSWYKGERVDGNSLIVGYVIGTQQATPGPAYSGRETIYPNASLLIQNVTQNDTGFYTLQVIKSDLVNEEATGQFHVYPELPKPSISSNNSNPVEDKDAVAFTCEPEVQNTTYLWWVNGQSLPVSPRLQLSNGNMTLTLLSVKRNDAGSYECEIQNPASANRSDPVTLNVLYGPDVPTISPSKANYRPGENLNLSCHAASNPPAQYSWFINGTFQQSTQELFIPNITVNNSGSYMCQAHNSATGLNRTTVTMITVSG
# T3: shed CEA (soluble CEA) (human, UniProt P06731 35-685, limits assumed)
# T3 sequence (looked up): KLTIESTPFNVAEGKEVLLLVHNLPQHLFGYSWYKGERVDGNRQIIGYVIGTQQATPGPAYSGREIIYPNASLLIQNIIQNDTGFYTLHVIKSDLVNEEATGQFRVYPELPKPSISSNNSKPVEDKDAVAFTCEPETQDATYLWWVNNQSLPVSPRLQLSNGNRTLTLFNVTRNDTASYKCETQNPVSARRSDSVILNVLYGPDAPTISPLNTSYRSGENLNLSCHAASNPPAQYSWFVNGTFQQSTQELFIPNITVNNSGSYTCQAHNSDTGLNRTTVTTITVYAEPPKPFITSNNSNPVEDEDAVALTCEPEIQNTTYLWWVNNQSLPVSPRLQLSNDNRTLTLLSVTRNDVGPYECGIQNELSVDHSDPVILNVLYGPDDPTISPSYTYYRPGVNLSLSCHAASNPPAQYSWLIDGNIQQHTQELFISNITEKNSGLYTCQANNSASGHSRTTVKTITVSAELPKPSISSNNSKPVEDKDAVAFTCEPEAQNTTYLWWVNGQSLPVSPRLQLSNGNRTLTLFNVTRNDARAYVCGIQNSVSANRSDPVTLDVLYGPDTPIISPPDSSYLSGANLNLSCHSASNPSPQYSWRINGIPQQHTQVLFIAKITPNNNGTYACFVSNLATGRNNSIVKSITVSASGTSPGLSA
# What was measured:
# [1] = target: T4, human CD47 on MKN45 cells (human, UniProt Q08722 19-323); experiment: inhibition of SIRPα-mouseFc binding to CD47 on MKN45 cells, imaging (CX5)
# T4 construct: whole, on cells; also called IAP
# Description: The detection of bound SIRPα cell-based assay monitoring the interaction of soluble SIRPα with human CD47 expressed at the surface of MKN45 is used for the detection of the blocking activity. Dose-response experiments with bispecific antibodies according to the invention allow determination of an IC50 value.
# MKN45 cancer cells, expressing both CD47 and CEACAM5, are stained with CFSE violet to allow the imaging system (CX5) to detect the cells. Briefly, 3,000 stained MKN45 cells per well are seeded in a 384 optical well plate (Costar) and incubated for 50 minutes with increased concentrations of bispecific antibodies of the invention (1.9 pM to 333 nM, in quadruplicates). Then, a fixe concentration of SIRPα-mouseFc premixed with anti-mouse IgG-Fc AF647 coupled antibody (Jackson Immunoresearch diluted 1:2000) is added at 50 ng/mL final. After an incubation of 3H30 plates are acquired with the imaging system (CX5, Thermofisher) and fluorescence signals emitted by the detected bound SIRPα is recorded by the software dedicated to the imaging system. Fluorescence signals are plotted according to the dose range tested and IC50 are calculated by the software (Prism, Graphpad).
# [2] = target: T1, human CEACAM5 on MKN-45 cells; experiment: binding to MKN-45 cells (MFI), in the presence of 200 ng/mL shed CEA
# [3] = target: T1, human CEACAM5 on MKN-45 cells; experiment: FACS binding to MKN-45 cells, which express CD47, CEACAM5 and CEACAM6
# human CEACAM6 = target: T2, human CEACAM6; experiment: statement in the legend of FIG. 21A (FACS on MKN-45 cells)
# shed CEA (soluble CEA) = target: T3, shed CEA (soluble CEA); experiment: cell-based or functional assay
# [4] = target: T1, human CEACAM5 on MKN-45 cells; experiment: binding to MKN-45 cells (MFI), without shed CEA
# [5] = target: T1, human CEACAM5 on MKN-45 cells; experiment: flow cytometry on MKN45 CEA+ cells (carry CEACAM5 and CD47)
binder,measurement,setting,value
"K2AC22 CEA×CD47 bispecific antibody (bispecific antibody, human IgG1, kappa, lambda, κλ body, human IgG1, common heavy chain; CEACAM5 arm light chain 1G6 (AC22)) heavy: not shown light 1: QSVLTQPPSVSAAPGQKVTISCSGSSSNIANGIVSWYQQLPGTAPKLLIYFDNLRPSGIPDRFSGSKSGTSATLGITGLQTGDEADYYCGTWDFSYGIVFGGGTKLTVLGQPKAAPSVTLFPPSSEELQANKATLVCLISDFYPGAVTVAWKADSSPVKAGVETTTPSKQSNNKYAASSYLSLTPEQWKSHRSYSCQVTHEGSTVEKTVAPTECS light 2: not shown",IC50,[1],0.37 nM
same,EC50 (read off the curve),[2],~0.5 µg/mL
same,EC50 (read off the curve),[3],~1 µg/mL
same,binding result,human CEACAM6,no binding
same,shift of EC50 of the phagocytosis index curve of MKN-45 cells by 200 ng/mL shed CEA,shed CEA (soluble CEA),< 4 fold
same,EC50 (read off the curve),[4],~0.5 µg/mL
same,EC50,[5],16.5 nM
